The results in this text go back to article PMC3239194.

Test [1] addresses I-Bth0305I full-length enzyme containing a catalytically inactivating D222N mutation (Bacillus thuringiensis 0305ϕ8–36 bacteriophage). Nature of the test: SEC. A general note: SEC sorts molecules by how far they enter the pores of the column.
In test [2] the target is I-Bth0305I isolated catalytic domain containing a D196A mutation (Bacillus thuringiensis 0305ϕ8–36 bacteriophage). The test is described as follows: SEC.

As a reminder, the stoichiometry N is a count of units in the complex or per binding partner.

“I-Bth0305I full-length enzyme containing a catalytically inactivating D222N mutation” returned a stoichiometry N in test [1] of 2.

“I-Bth0305I isolated catalytic domain containing a D196A mutation (domain or fragment)”: in test [2], the stoichiometry N is 2.
